Test [1] addresses T1, muANGPTL7-his (R&D Systems) (mouse, UniProt Q8R1Q3 22-337, limits assumed).
T1 construct: Bought protein; also called mouse ANGPTL7 protein
T1 sequence (looked up): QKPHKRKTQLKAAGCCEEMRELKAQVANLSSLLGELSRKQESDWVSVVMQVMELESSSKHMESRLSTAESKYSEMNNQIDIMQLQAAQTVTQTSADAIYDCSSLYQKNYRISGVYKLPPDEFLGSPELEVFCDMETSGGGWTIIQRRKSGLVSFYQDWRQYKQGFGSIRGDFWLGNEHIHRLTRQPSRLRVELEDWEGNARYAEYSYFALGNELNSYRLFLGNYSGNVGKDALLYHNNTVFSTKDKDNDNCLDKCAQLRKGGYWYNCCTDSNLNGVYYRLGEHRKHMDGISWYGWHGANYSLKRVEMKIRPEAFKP
Kind of test: BLI Octet HTX; IgG on AHC sensor; muANGPTL7-his at 200 nM; 1:1 fit. The method, boiled down: (§1)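 Anti-ANGPTL7 antibodies (50 nM) were loaded on AHC biosensors in PBS pH 7.4 with BSA, azide and Tween 20. Sensors were dipped in monovalent mouse ANGPTL7-his (200 nM) for 5 min association and 10 min dissociation. KD came from a 1:1 fit, and responses were taken at the end of association.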
(BLI is a label-free optical method that tracks binding on a fibre tip over time.)

Test [2] concerns the target T2, P62 (huANGPTL7-his) (human, UniProt O43827 27-346).
T2 construct: not shown: C-terminal short linker and His tag
T2 chain: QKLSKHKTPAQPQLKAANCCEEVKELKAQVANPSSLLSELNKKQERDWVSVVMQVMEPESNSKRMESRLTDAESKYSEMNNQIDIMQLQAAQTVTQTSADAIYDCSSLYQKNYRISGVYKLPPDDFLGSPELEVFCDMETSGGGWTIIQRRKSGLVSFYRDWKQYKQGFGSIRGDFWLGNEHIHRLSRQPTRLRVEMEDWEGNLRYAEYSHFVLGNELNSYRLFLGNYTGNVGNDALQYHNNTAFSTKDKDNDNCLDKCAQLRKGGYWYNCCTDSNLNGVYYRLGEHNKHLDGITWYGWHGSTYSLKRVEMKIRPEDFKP
Kind of test: BLI Octet HTX; IgG on AHC sensor; P62 0.343-250 nM; global 1:1 fit. As for the experimental part:
(§2) Experiments were also conducted to determine the reactivity and dissociation constants (KD) of anti-ANGPTL7 antibodies with the human ANGPTL7-his protein. Binding experiments were performed on Octet HTX (ForteBio) in 1×PBS, pH 7.4, 0.1 mg/mi BSA, 0.05% Sodium Azide, and 0.02% Tween 20. To measure monovalent binding kinetics, antibodies at a concentration of 50 nM were loaded on pre-hydrated AHC biosensors for 5 min. The loaded sensors were dipped into monovalent P62 (huANGPTL7-his) at a range of concentration from 0.343-250 nM (a serial 3-fold dilution) for 5 min association, followed by 10 min dissociation.

In test [3] the target is T2, P62 (huANGPTL7-his). The experiment in a line: BLI Octet HTX; IgG on AHC sensor; P62 0.343-250 nM. On the procedure:
as §2

Test [4] deals with T1, muANGPTL7-his (R&D Systems). Kind of test: BLI Octet HTX; IgG on AHC sensor; muANGPTL7-his at 200 nM. The gist of the method: as §1
A further test concerns the target T3, P66 (rabbit ANGPTL7-his) (rabbit, UniProt G1T4P1 27-344).
T3 construct: mature; also called rabbit ANGPTL7 protein
T3 sequence: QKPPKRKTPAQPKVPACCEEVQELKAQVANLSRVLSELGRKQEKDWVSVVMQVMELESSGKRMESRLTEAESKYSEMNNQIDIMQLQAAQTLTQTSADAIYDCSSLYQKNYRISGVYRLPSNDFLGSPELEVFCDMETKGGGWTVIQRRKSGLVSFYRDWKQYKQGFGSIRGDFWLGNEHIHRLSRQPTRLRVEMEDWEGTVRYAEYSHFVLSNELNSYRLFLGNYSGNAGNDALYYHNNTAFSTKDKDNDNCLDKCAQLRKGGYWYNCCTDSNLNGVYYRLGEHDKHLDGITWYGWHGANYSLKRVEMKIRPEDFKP
The experiment in a line: BLI Octet HTX; IgG on AHC sensor; P66 at 200 nM. On the procedure: Experiments were also conducted to determine the reactivity and dissociation constants ([…]) of anti-ANGPTL7 antibodies with the rabbit ANGPTL7 protein. Binding experiments were performed on Octet HTX (ForteBio) in Rx PBS, pH 7.4, 0.1 mg/mi BSA, 0.05% Sodium Azide, and 0.02% Tween 20. Antibodies at a concentration of 50 nM were loaded on pre-hydrated AHC biosensors for 5 min. The loaded sensors were dipped into monovalent P66 (rabbit ANGPTL7-his) at a concentration of 200 nM for 5 min of association, followed by 10 min of dissociation. […] Responses (nm) at the end of association were also determined (Table 6).

The target of test [5] is T4, Pext-01 (huANGTPL7-FLAG multimer) (human, UniProt O43827 27-346).
T4 construct: also called PExt-1; human wild type ANGPTL7 multimer; not shown: FLAG tag
T4 sequence: T2 chain with P33L, P58L
The experiment in a line: BLI Octet HTX; IgG on AHC sensor; Pext-01 at 100 nM. As for the experimental part:
Experiments were also conducted to determine the reactivity and dissociation constants (KD) of anti-ANGPTL7 antibodies with the human ANGPTL7 multimer protein. Binding experiments were performed on Octet HTX (ForteBio) in 1×PBS, pH 7.4, 0.1 mg/ml BSA, 0.05% Sodium Azide, and 0.02% Tween 20. Antibodies at a concentration of 50 nM were loaded on pre-hydrated AHC biosensors for 5 mi. The loaded sensors were dipped into Pext-01 (huANGTPL7-FLAG) at a concentration of 100 nM for 5 min of association, followed by 10 min of dissociation. […] Responses (nm) at the end of association were also determined (Table 7).

Where a chain is given by its changes, count along the chain named.

B1: ATX-P-449 (antibody, human IgG1, kappa, N297A, V domains shown)
VH: QVQLVESGGGVVQPGRSLRLSCAASGFAFSSYGMHWVRQAPGKGLEWVAVISYYGSNKYYADSVKGRFTISRDNSKNTLYLQMNSLRAEDTAVYHCARGITMDVWGKGTTVTVSS
VL: EIVLTQSPATLSLSPGERATLSCRASQSVSSYLAWYQQKPGQAPRLLIYDASNRATGIPARFSGSGSGTDFTLTISSLEPEDFAVYYCQQRSNWPLTFGGGTKVEIKR
notes: Full chains (VH + hIgG1-Agly-Fc)
Usually Kd stands for the concentration at which binding is half-saturated. In test [1], B1 showed a Kd of 0.857 nM and a Response of 0.75 nm. For the same molecule, in the test with P62 (huANGPTL7-his) [2], the binding result is on record as “binds”.

B2: ATX-P-443 (antibody, human IgG1, kappa, N297A, V domains shown)
VH: QVQLVQSGAEVKKPGASVKVSCKASGYTFTSYGISWVRQAPGQGLEWMGWIIAYNGNTNYAQKLQGRITMTTNTSTNTAYMELRSLRSDDTAVYYCGRDTGFSFDYWGQGTLVTVSS
VL: not shown
notes: as for B1
Turning to B2, the binding result in the test with P62 (huANGPTL7-his) [3] was “no binding (tested: 250 nM)”; in test [4], “no binding (tested: 200 nM)”; in the test with P66 (rabbit ANGPTL7-his), “no binding (tested: 200 nM)”; in test [5], “no binding (tested: 100 nM)”.

B3: ATX-P-428 (antibody, human IgG1, kappa, N297A, V domains shown)
VH: QVQLVQSGAEVKKPGASVKVSCKASGYTFSSYGISWVRQAPGQGLEWMGWISAYNGNTNYAQNLRGRVAMTTDTSTTTAYMELRSLRSDDTAVYYCARVSLVWFGELPRGFDYWGQGTLVTVSS
VL: not shown
notes: as for B1
With B3, in test [1], the Response stood at 0.04 nm. Moreover, the binding result in the test with P62 (huANGPTL7-his) [3] is “no binding (tested: 250 nM)”; in test [4] it was “no binding (tested: 200 nM)”; in the test with P66 (rabbit ANGPTL7-his) it was “no binding (tested: 200 nM)”; in test [5], “no binding (tested: 100 nM)”.
